Experimental data: patent US7005283B2, “Cytochrome P450 oxygenases and their uses” (Washington State University Research Foundation, priority 1999, dated 2006)

What was measured:
[1] = In vivo assay of yeast cells expressing recombinant oxygenases, radio-HPLC, substrate taxadiene; type: cell-based, Saccharomyces cerevisiae; conditions: assayed with Taxadiene; graded symbols, key not given
[2] = In vitro enzyme assay for taxoid oxygenase activity (baculovirus-Spodoptera expressed enzyme), substrate taxadiene; type: biochemical, Spodoptera frugiperda; conditions: 30 μM substrate, 32° C., 12 hours
Description: The standard enzyme assay for assessing oxygenase activity of the recombinant cytochrome P450 employed the following conditions: 25 mM HEPES buffer, pH 7.5, 400 μM NADPH, 300 μg protein and 30 μM substrate (taxadiene, taxadienol, or taxadienyl acetate) in a total volume of 1 mL. Samples were incubated at 32° C. for 12 hours, after which 1 mL of saturated NaCl solution was added to the reaction mixture, followed by extraction of the product with 2 mL of hexane/ethyl acetate (4:1, v/v). […]
For the functional characterization of clone F16, the recombinant baculovirus carrying the cytochrome P450 clone F16 ORF was coexpressed with a recombinant baculovirus carrying the Taxus NADPH:cytochrome P450 reductase gene. […] The viral titers were determined according to the End-Point Dilution method (O'Reilly et al., Baculovirus Expression Vectors, A Laboratory Manual, New York, N.Y., Freeman and Company, 1992). […]

[3] = In vitro enzyme assay for taxoid oxygenase activity (baculovirus-Spodoptera expressed enzyme), substrate taxadienol; type: biochemical, Spodoptera frugiperda
Description: The standard enzyme assay for assessing oxygenase activity of the recombinant cytochrome P450 employed the following conditions: 25 mM HEPES buffer, pH 7.5, 400 μM NADPH, 300 μg protein and 30 μM substrate (taxadiene, taxadienol, or taxadienyl acetate) in a total volume of 1 mL. Samples were incubated at 32° C. for 12 hours, after which 1 mL of saturated NaCl solution was added to the reaction mixture, followed by extraction of the product with 2 mL of hexane/ethyl acetate (4:1, v/v). The extracts were dried and dissolved in acetonitrile for product analysis by radio-HPLC [column: Alltech Econosil C18 5 μm particle size (250 mm×4.6 mm): solvent system A: 0.01% (v/v) H3PO4, 2% acetonitrile, 97.99% H2O; solvent system B: 0.01% H3PO4, 99.99 acetonitrile; gradient: 0–5 minutes, 100% A; 5–15 minutes, 0–50% B; 15–55 minutes, 50–100% B; 55–65 minutes, 100% B; 65–70 minu A; 70–75 minutes, 100% A; flow rate 1 mL/minute; for detection, a radio-chromatography detector (Flow-One®-Beta Series A-100, Radiomatic) was used].
For the functional characterization of clone F16, the recombinant baculovirus carrying the cytochrome P450 clone F16 ORF was coexpressed with a recombinant baculovirus carrying the Taxus NADPH:cytochrome P450 reductase gene. To the insect cell suspension, the two recombinant baculoviruses were added at a multiplicity of infection of 1–5. The viral titers were determined according to the End-Point Dilution method (O'Reilly et al., Baculovirus Expression Vectors, A Laboratory Manual, New York, N.Y., Freeman and Company, 1992). For infection, the cells were incubated for 1 hour at 28° C. and 80 rpm. The cell culture volume was brought to 50 mL with standard cell culture medium, and hemin (Sigma) was added to a final concentration of 2 μg/mL. The infected cells were incubated for 48 hours in a gyratory shaker at 28° C. and 140 rpm. The infected insect cells were harvested from the cell culture medium by centrifugation as described above, and washed twice with PBS (50 mM KH2PO4, pH 7.5, 0.9% NaCl). […]

[4] = type: binding, Saccharomyces cerevisiae
How it was run: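 Full-length Taxus cytochrome P450 clones in pYeDP60 were expressed in yeast, with induction by galactose (10% final) for about 24 h. Whole cells were treated with CO, and CO-difference spectra were recorded spectrophotometrically against untreated cells.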

B1: clone F16: Taxus cuspidata cytochrome P450 taxane 9α-hydroxylase, full-length clone, SEQ ID NO: 82 (nt) / 88 (aa) (protein, listed as Taxus cuspidata)
chain: MDALKQLEVSPSILFVTLAVMAGIILFFRSKRHSSVKLPPGNLGFPLVGETLQFVRSLGSSTPQQFIEERMSKFGDVFKTSIIGHPTVVLCGPAGNRLVLSNENKLVQMSWPSSMMKLIGEDCLGGKTGEQHRIVRAALTRFLGPQALQNHFAKMSSGIQRHINEKWKGKDEATVLPLVKDLVFSVASRLFFGITEEHLQEQLHNLLEVILVGSFSVPLNIPGFSYHKAIQARATLADIMTHLIEKRRNELRAGTASENQDLLSVLLTFTDERGNSLADKEILDNFSMLLHGSYDSTNSPLTMLIKVLASHPESYEKVAQEQFGILSTKMEGEEIAWKDLKEMKYSWQVVQETLRMYPPIFGTFRKAITDIHYNGYTIPKGWKLLWTTYSTQTKEEYFKDADQFKPSRFEEEGKHVTPYTYLPFGGGMRVCPGWEFAKMETLLFLHHFVKAFSGLKAIDPNEKLSGKPLPPLPVNGLPIKLYSRS
product identified HPLC peak [1]: No
conversion of taxadiene to an oxygenated product [2]: not converted detectably
conversion of taxa-4(20),11(12)-dien-5α-ol ([3]; 30 μM substrate, 32° C., 12 hours, GC-MS): converted most efficiently to a diol product
enzyme function assigned from screening ([3]; baculovirus-Spodoptera expression): cytochrome P450 taxane-9α-hydroxylase
identity of the product of the oxygenase reaction with taxadienol ([3]; preparative incubation, 1H- and 13C-NMR): taxa-4(20),11(12)-dien-5α,9α-diol
CO diff. spec. [4]: +++
